Here are results for 7 molecules from PMC4479986, “An Alternative Phosphorylation Switch in Integrin β2 (CD18) Tail for Dok1 Binding” (Scientific Reports, 2015).

Series [1] deals with T1, Dok1 PTB domain (Homo sapiens, UniProt Q99704).
T1 construct: Human Dok1 PTB domain (Q154 – G256; Swiss-Prot Q99704, number as Q1-G103); six His-tag (N); made in house; host or cells: Escherichia coli Rosetta
T1 sequence (Q99704 154-256): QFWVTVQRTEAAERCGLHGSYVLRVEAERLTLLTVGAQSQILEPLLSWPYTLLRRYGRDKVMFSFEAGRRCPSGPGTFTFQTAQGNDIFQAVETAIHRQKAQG
As to the kind of experiment: 15N-1H HSQC NMR chemical shift titration of Dok1 PTB domain with integrin β2 tail peptides. The conditions noted are these: Table 2; 15N-1H HSQC combined chemical shift perturbation, 0.7 mM 15N-Dok1 PTB domain, 50 mM sodium phosphate pH 6.0, 100 mM NaCl, 2 mM DTT, 20 min equilibration; depletion model fit; Kd ± S.E.; read-out: Dissociation constant Kd. The class given is binding. As to the method:
Human Dok1 PTB domain (Q154 – G256; Swiss-Prot Q99704, number as Q1-G103) was sub-cloned into the pET14b vector with an N-terminal six His-tag. Escherichia coli Rosetta cells were transformed with the expression plasmid and grown at 37 °C either in LB or M9 medium containing [^15N] ammonium chloride (Cambridge Isotope Laboratories). Expression of recombinant protein was induced by adding 1 mM IPTG to cells (OD600 0.6–0.7) followed by incubation for 6–12 h at 16 °C. Cells were centrifuged and re-suspended in Buffer A (20 mM Tris-HCl buffer, pH 8.0) followed by affinity purification on a Nickel-NTA column (Qiagen). […] Proteins were eluted at a flow rate of 0.5 ml/min and monitored by absorbance at λ = 276 nm.
All NMR experiments were performed on a Bruker DRX 600 MHz spectrometer equipped with an actively shielded cryoprobe. NMR data were processed using the NMRPipe and NMRDraw suite and analysed by Sparky (T.D. Goddard and D.G. Kneller, University of California, San Francisco). […] The stock solutions of the above mentioned peptides were prepared in the same buffer (100 mM NaCl, 2 mM DTT, 50 mM sodium phosphate, pH 6.0) used for the Dok1 PTB domain NMR experiments, ^15N-^1H HSQC spectra were recorded at different protein:peptide molar ratios (1:0.1, 1:0.2, 1:0.3, 1:0.5, 1:1, 1:1.5, 1:2, 1:2.5 and 1:3) for all of the above mentioned peptides except for the unphosphorylated KT15. […]

Series [2] can be described thus: Solubility of β2 tail peptide as observed in NMR sample preparation. The class given is physicochemical. The settings on record: at high concentrations, NMR buffer.
In series [3] the target is T2, Human Dok1 PTB domain (Q154-G256) (human, UniProt Q99704 154-256).
T2 construct: Docking protein 1 (Dok1; p62Dok), human, PTB domain Q154-G256 of Swiss-Prot Q99704. numbers count on: the construct, renumbered Q1-G103 (Q154 = Q1); pET14b vector; no removal of the His tag is described; Residue numbers of the PTB domain in the results (Arg54, Arg69 ...) count on Q1-G103; also called PTB domain of Dok1; source: E. coli Rosetta, purified (Nickel-NTA, gel filtration on Superdex …)
T2 sequence (looked up): T1 sequence (Q99704 154-256)
Briefly: NMR titration; 15N-1H HSQC of 15N-labelled Dok1 PTB domain at 0.7 mM, unlabelled peptide added (protein:peptide 1:0.1 to 1:3; KT15 1:0.5 to 1:6); 100 mM NaCl, 2 mM DTT, 50 mM sodium phosphate, pH 6.0; Kd from combined chemical shift changes, depletion model; apparent for KT15. The settings on record: both partners purified.

For series [4], the system named is Dok1-CFP / integrin β2-YFP association in K562 cells. Briefly: YFP-photobleach FRET between Dok1-CFP and integrin β2-YFP in K562 cells. The class given is cell-based, human. The conditions noted are these: K562 stably expressing Dok1-CFP, transfected with integrin αL, β2-YFP and CCR5; RANTES 50 ng/ml, 10 min, 37 °C; 39 cells with, 60 without; p < 0.05. The method, then:
K562 cells (ATCC, Manassas, VA) were cultured in RPMI1640 full-medium containing 10% (v/v) FBS and antibiotics. Cells (2 × 10^6) were transfected with integrin αL plasmid (9 μg), integrin β2-YFP plasmid (WT or mutant) (9 μg) and Dok1-CFP or CFP plasmid (12 μg) by electroporation using the Neon electroporation kit (Invitrogen) on a MP-100 pipette-type microporator (Invitrogen). YFP-photobleach FRET assay was performed essentially as described. Immunoblottings of transfected K562 lysates were performed using rabbit anti-GFP antibody (Life Technologies, Grand Island, NY), rabbit anti-Dok1 antibody (Abcam, Cambridge, MA) and HRP-conjugated goat anti-rabbit (Avansta, Menlo Park, CA) followed by ECL detection. To generate K562 cells stably expressing Dok1-CFP, cells were transfected with Dok1-CFP plasmid by electroporation followed by serial dilutions into 96-well cell culture microtitre plates to select for stable clones in the presence of antibiotic G418 (0.6 mg/ml). Clones expressing Dok1-CFP were screened by flow cytometry analyses and verified by immunoblotting with anti-GFP antibody (Life Technologies, Grand Island, NY). […] Samples were acquired and examined on a FACSCalibur flow cytometer and data analyzed using the Flowjo software (Tree Star Inc. Ashland, OR). […]

Square brackets hold non-standard residues; d marks the D form. Ends that are not written are not given here. Peptide text beside a SMILES is read from it. pS = N[C@@H](COP(=O)(O)O)C(=O)O

As to `CC(C)C[C@H](NC(=O)[C@@H]1CCCN1C(=O)[C@H](CC(N)=O)NC(=O)[C@H](CC(=O)O)NC(=O)[C@H](CC(N)=O)NC(=O)[C@H](CC(N)=O)NC(=O)[C@H](Cc1c[nH]c2ccccc12)NC(=O)[C@H](CCC(N)=O)NC(=O)[C@H](CO)NC(=O)[C@@H](N)CCCCN)C(=O)N[C@@H](Cc1ccccc1)C(=O)N[C@@H](CCCCN)C(=O)N[C@@H](CO)C(=O)N[C@@H](C)C(=O)N[C@H](C(=O)O)[C@@H](C)O` [KT15] (H-KSQWNNDNPLFKSAT-OH), the Kd in series [1] was found to be 16000 ± 300 µM.
For `CC(C)C[C@H](NC(=O)[C@@H]1CCCN1C(=O)[C@H](CC(N)=O)NC(=O)[C@H](CC(=O)O)NC(=O)[C@H](CC(N)=O)NC(=O)[C@H](CC(N)=O)NC(=O)[C@H](Cc1c[nH]c2ccccc12)NC(=O)[C@H](CCC(N)=O)NC(=O)[C@H](CO)NC(=O)[C@@H](N)CCCCN)C(=O)N[C@@H](Cc1ccccc1)C(=O)N[C@@H](CCCCN)C(=O)N[C@@H](COP(=O)(O)O)C(=O)N[C@@H](C)C(=O)N[C@H](C(=O)O)[C@@H](C)O` [pSer756-KT15] (H-KSQWNNDNPLFK[pS]AT-OH), in series [1], the Kd worked out at 189 ± 30 µM.
As for “KALIHLSDLREYRRFEKEKLKSQWNNDNPLFKSATTTVMNPKFAES [full-length unphosphorylated β2 tail, Synthetic full-length integrin β2 (CD18) cytoplasmic tail, residues 724-769]”, in series [2], the Solubility in words entry is reported as “limited solubility”.

B1: Full-length integrin β2 tail peptide phosphorylated at Ser745 (peptide)
chain: KALIHLSDLREYRRFEKEKLK[pS]QWNNDNPLFKSATTTVMNPKFAES
With B1, in series [3], the Kd is 215 µM.

B2: Full-length integrin β2 tail peptide phosphorylated at Ser756 (peptide)
chain: KALIHLSDLREYRRFEKEKLKSQWNNDNPLFK[pS]ATTTVMNPKFAES
Turning to B2, in series [3], the Kd turned out to be 98 µM.

B3: RANTES: Chemokine, ligand of CCR5, used to activate cells (Calbiochem) (protein, UniProt P13501 24-91, looked up)
C-C motif chemokine 5: SPYSSDTTPCCFAYIARPLPRAHIKEYFYTSGKCSNPAVVFVTRKNRQVCANPEKKWVREYINSLEMS
Consider B3, for which the “FRET signal Dok1-CFP / integrin β2-YFP compared with untreated cells” value in series [4] is given as “significantly lower”.

B4: KT18EE, integrin β2 tail fragment (K742-T759) with Ser745 and Ser756 substituted by Glu (peptide)
peptide: KLKEQWNNDNPLFKEATT
notes: also called Ser to Glu substituted KT18 peptide; Ser to Glu substituted β2 tail peptide; source: synthetic peptide, bought: GLBioChem, Shanghai (purity >95%)
Consider B4, for which the Kd in series [3] stood at 8490 µM.
